Laboratory results published in patent publication US20130122008A1, “Anti-IL 1- ß Antibody Combination Therapy” (NOVARTIS AG, priority 2009, published 2013).
“Also recorded” adds a separate entry of the source.

Legend:
Assay type in all cases: in vivo, human
[1] = tested on: patients with type 2 diabetes mellitus (T2DM); test: Hemoglobin A1c in clinical dose escalation study of ACZ885 i.v. in T2DM patients on metformin
Method: The hemoglobin A1c assay is performed at Covance Central Laboratory Services (CLS) on the FDA-approved Bio-Rad Variant™ analyzer. This analyzer utilizes the principles of ion-exchange high performance liquid chromatography (HPLC) and microcomputer technology. Detection is performed at two wavelengths, 415 nm and 690 nm, to insure a stable baseline. A chromatogram of the changes in the absorbance is plotted versus the retention time. Each chromatogram printout is accompanied by a report identifying each peak detected, plus the relative percent and retention times of each peak. The method has an inter-assay precision of 1.7-2.1% CV, and an intra-assay precision of 0.9-1.1% (determined by assaying 15 replicate assays of a sample then evaluating the coefficient of variation). A multi center, randomized, double blind, placebo-controlled, dose escalation study of the safety, tolerability, pharmacokinetics and pharmacodynamics of ACZ885 administered intravenously to patients with type 2 diabetes mellitus. The aim of the study is to compare the pharmacokinetic and pharmacodynamic effects of five doses (i.v. administration) of ACZ885 with placebo in patients with type 2 diabetes mellitus (T2DM). […] OGTT was administered at Baseline, 4 and 12 wk post-dose. […]

[2] = tested on: patients with type 2 diabetes mellitus (T2DM); test: High sensitive C-reactive protein (hsCRP) in clinical study of ACZ885 in T2DM patients on metformin; settings: single i.v. dose 0.03, 0.1, 0.3, 1.5 mg/kg, Week 4, on stable metformin
Method: CRP is one of the “acute phase” proteins, the serum or protein levels of which rise during general, nonspecific response to infectious and non-infectious inflammatory processes such as rheumatoid arthritis, cardiovascular disease and peripheral vascular disease. CRP is synthesized in the liver and is present in trace amounts in serum or plasma. The C-Reactive Protein HS assay is performed at Covance Central Laboratory Services by immunonephelometry using the Siemens BNII Nephelometer. Polystyrene particles coated with monoclonal antibodies to CRP are agglutinated when mixed with samples containing CRP. The intensity of the scattered light in the nephelometer depends on the CRP content of the sample and therefore the CRP concentration can be determined versus dilutions of a standard of a known concentration The method has an inter-assay precision of 2.1-5.7% CV, and an intra-assay precision of 2.3-4.4% (determined by assaying 10 replicate assays of a sample then evaluating the coefficient of variation). CRP accuracy is evaluated by comparison with College of American Pathologists (CAP) Cardiac Risk Survey. A multi center, randomized, double blind, placebo-controlled, dose escalation study of the safety, tolerability, pharmacokinetics and pharmacodynamics of ACZ885 administered intravenously to patients with type 2 diabetes mellitus. […]

[3] = tested on: patients with type 2 diabetes mellitus (T2DM); test: Glucagon (OGTT) in clinical study of ACZ885 in T2DM patients on metformin; settings: dose escalation, Week 4 post-dose, versus placebo
Description: Glucagon is a hormone secreted by the alpha cells of the pancreatic islets of Langerhans. It is secreted in response to hypoglycemia and increases the blood glucose. As serum glucose levels rise in the blood, glucagon is inhibited by a negative feedback mechanism. The Millipore/LINCO Glucagon Radioimmunoassay kit utilized I^125 labeled glucagon and glucagon antiserum to determine the level of glucagon in plasma by the double antibody/PEG technique. The antibody is specific for pancreatic glucagon. A standard curve is set up with increasing concentrations of standard unlabeled antigen and from this curve the amount of antigen in unknown samples can be calculated. The method has an inter-assay precision of 7.3-13.5% CV, and an intra-assay precision of 4.0-6.8% (determined by assaying replicate assays then evaluating the coefficient of variation). Accuracy is evaluated by comparison with College of American Pathologists (CAP) Ligand. A multi center, randomized, double blind, placebo-controlled, dose escalation study of the safety, tolerability, pharmacokinetics and pharmacodynamics of ACZ885 administered intravenously to patients with type 2 diabetes mellitus. The aim of the study is to compare the pharmacokinetic and pharmacodynamic effects of five doses (i.v. administration) of ACZ885 with placebo in patients with type 2 diabetes mellitus (T2DM). […]

B1: ACZ885: anti-IL1β antibody, also referred to as Canakinumab; variable domains shown in SEQ ID NO:1 (VH) and SEQ ID NO:2 (VL) (antibody, V domains shown)
VH: QVQLVESGGGVVQPGRSLRLSCAASGFTFSVYGMNWVRQAPGKGLEWVAIIWYDGDNQYYADSVKGRFTISRDNSKNTLYLQMNGLRAEDTAVYYCARDLRTGPFDYWGQGTLVTVSS
VL: EIVLTQSPDFQSVTPKEKVTITCRASQSIGSSLHWYQQKPDQSPKLLIKYASQSFSGVPSRFSGSGSGTDFTLTINSLEAEDAAAYYCHQSSSLPFTFGPGTKVDIK
modifications: homo sapiens
hemoglobin A1c (HbA1c) ([1]; single i.v. dose 1.5 mg/kg, Week 4, T2DM subjects on stable metformin, versus placebo, 1.5 mg/kg): statistically significant decreased; also recorded: Significant reduction
reduction in HbA1c ([1]; single i.v. dose 10 mg/kg, Week 4 to Week 12, p=0.032): −0.32%
high-sensitivity C-reactive protein (hsCRP), dose response [2]: linear reduction (dose proportional); also recorded: linear decreasing trend
OGTT glucagon AUC0-4 h [3]: Positive trends consistent with dose escalation; also recorded: positive trend at Week 4 post-dose, albeit not statistically significant
